Results from patent US8501426B2, “Method for identifying protease inhibitors” (priority 2006, dated 2013).
[ ]: non-standard residue; d: D form. The star is where a group is joined. FITC = O=C1OC2(c3ccc(O)cc3Oc3cc(O)ccc32)c2ccc(NC(=S)*)cc21; Abu = CC[C@H](N)C(=O)O; Ahx = NCCCCCC(=O)O

Tests used:
[1] = test system: CC[C@H](NC(=O)[C@@H](NC(=O)[C@@H](NC(=O)[C@H](CC(=O)O)NC(=O)[C@@H](N)CCC(=O)O)C(C)C)C(C)C)C(=O)N[C@@H](CS)C(=O)N[C@@H](CO)C(=O)N[C@@H](CCSC)C(=O)N[C@@H](CO)C(=O)N[C@@H](Cc1ccc(O)cc1)C(=O)O; test: HCV NS3 protease domain peptide cleavage assay (determination of Km and Vmax); format: biochemical; conditions: other: enzyme NS3 Protease Domain; peptide substrate varied 3 μM to 200 μM; 25 μM KK4A cofactor; reverse phase HPLC; pH 7.8; 40.0 °C
Procedure: This assay is a modification of that described by Landro, et al. (Landro J A, Raybuck S A, Luong Y C, O'Malley E T, Harbeson S L, Morgenstern K A, Rao G and Livingston D L. Biochemistry 1997, 36, 9340-9348), and uses a peptide substrate (NS5AB), based on the NS5A/NS5B cleavage site for genotype 1a HCV. The substrate stock solution (25 mM) was prepared in DMSO containing 0.2 M DTT and stored at −20° C. A synthetic peptide cofactor (KK4A) was used as a substitute for the central core region of NS4A. The reaction was performed in a 96-well microtiter plate format using 25 ηM to 50 ηM HCV NS3 protease domain in buffer containing 50 mM HEPES pH 7.8, 100 mM NaCl, 20% glycerol, 5 mM DTT and 25 μM KK4A. The final DMSO concentration was no greater than 2% v/v. […]
The SMSY product was separated from substrate and KK4A using a microbore separation method. […] The SMSY product peak was quantified using the data collected at […].
To determine the kinetic parameters Km and Vmax, the HCV NS3 protease domain or HCV NS3•4A was reacted with peptide substrate under the assay conditions described above. […] The ratio of the product peak area (as determined by reverse phase HPLC) to the reaction time yielded a rate of enzyme catalyzed hydrolysis. […] The value of kcat was determined from Vmax using the nominal protease concentration and a fully cleaved substrate peptide as an instrument calibration standard.

[2] = test system: CC[C@H](NC(=O)[C@@H](NC(=O)[C@@H](NC(=O)[C@H](CC(=O)O)NC(=O)[C@@H](N)CCC(=O)O)C(C)C)C(C)C)C(=O)N[C@@H](CS)C(=O)N[C@@H](CO)C(=O)N[C@@H](CCSC)C(=O)N[C@@H](CO)C(=O)N[C@@H](Cc1ccc(O)cc1)C(=O)O; test: HCV NS3 peptide cleavage assay with full-length NS3•4A (determination of Km and Vmax); format: biochemical, HCV sub-type strain 1a; conditions: other: enzyme NS3•4A; peptide substrate varied 3 μM to 200 μM; 25 μM NS4A peptide; reverse phase HPLC; 40.0 °C
Procedure: (§1) This assay follows the cleavage of a peptide substrate by full-length hepatitis C viral protein NS3•4A. One of three peptide substrates based on the NS5A/NS5B cleavage site for genotype 1a HCV, shown in table 3 below, is used to measure enzyme activity. All substrate stock solutions (25 mM) were prepared in DMSO containing 0.2 M DTT and stored at −20° C. A synthetic peptide cofactor (NS4A Peptide) was used to supplement NS4A. The hydrolysis reaction was performed in a 96-well microtiter plate format using 100 ηM to 125 ηM HCV NS3•4A in buffer containing 50 mM HEPES pH 7.8, 100 mM NaCl, 20% glycerol, 5 mM DTT and 25 μM NS4A peptide. The final DMSO concentration was no greater than 2% v/v. Reactions using NS5AB or NS5AB-EDANS as substrate were quenched by the addition of 10% trifluoroacetic acid (TFA) to yield a final TFA concentration of 2.5%. Reactions using FITC-NS5AB-1 as substrate were quenched by the addition of 0.4 M formic acid to yield a final concentration of 0.08 M acid.
(§2) Enzymatic activity was assessed by separation of substrate and products using reverse phase HPLC. The instrument used was an Agilent 1100 with a G1322A degasser, either a G1312A binary pump or a G1311A quaternary pump, a G1313A autosampler, a G1316A column thermostated chamber, a G1321A fluorescence detector and a G1315A diode array detector. The column thermostat was at 40° C. […] The C-terminal product peak (NH2-SMSY-COOH) was quantified using the absorbance data collected at 210 ηm. […] The C-terminal product peak (NH2-SMSYT-Asp(EDANS)-KKK-COOH) was quantified using the fluorescence data collected at 350 ηm excitation/490 ηm emission. […] The N-terminal product peak (FITC-Ahx-EDVV-(alpha)Abu-C-COOH) was quantified using the fluorescence data collected at 440 ηm excitation/520 ηm emission. Alternatively, the ratio of N-terminal product to unreacted FITC-NS5AB-1 substrate was determined using a Caliper LabChip 3000 with detection at 488 ηm excitation/530 ηm emission, using a chip buffer of 100 mM Tris pH 7.0, 10 mM EDTA, 0.01% (v/v) Brij-35, and 0.1% (v/v) CR-3. […]

HCV NS3•4A = target: T1, HCV NS3•4A (Hepatitis C virus genotype 1a, UniProt P27958); test: as above; format: biochemical, HCV sub-type strain 1a; conditions: enzyme NS3•4A; peptide substrate varied 3 μM to 200 μM; 25 μM NS4A peptide; reverse phase HPLC
T1 construct: hexa-histidine (N); made in house; host or cells: Sf9 insect cells (recombinant baculovirus, pVL1392-His-NS3•4A)
Procedure: as §1, §2

HCV NS3 protease domain (Hepatitis C virus (isolate Con1))
Km [1]: 25 µM
kcat/Km [1]: 30000 M⁻¹ s⁻¹

HCV NS3•4A (Hepatitis C virus (isolate H77))
Km [2]: 30 µM
kcat/Km [2]: 7900 M⁻¹ s⁻¹

FITC-Ahx-EDVV-(alpha)Abu-CSMSYTKK-NH2 ({FITC}-[Ahx]EDVV[Abu]CSMSYTKK-NH2) [FITC-NS5AB-1, FITC-labelled peptide substrate based on the NS5A/NS5B cleavage site for genotype 1a HCV]
Km (HCV NS3•4A): 15 µM
